Values of other authors, collected in article PMC6006206.

Target: SufE (UniProt A7ZME4)
Sequence of UniProt A7ZME4 (A7ZME4 whole entry): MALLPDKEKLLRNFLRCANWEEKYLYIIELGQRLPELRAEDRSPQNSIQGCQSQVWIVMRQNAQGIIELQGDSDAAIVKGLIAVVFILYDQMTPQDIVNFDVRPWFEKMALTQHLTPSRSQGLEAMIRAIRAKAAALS

SufS (from UniProt A7ZME5)
Kd: 360 nM
